Experimental data reported in patent US20240199757A1 (UNIVERSITY OF CHICAGO, published 2024).
Like-named read-outs stand apart in the source and are kept apart here.

Columns and labels:
[1] = target: T1, human NT5E expressed on MDA-MB-231 cells (human, UniProt P21589 27-549); assay: flow cytometry on MDA-MB-231 cells, 1 mM ATP
T1 construct: whole, on cells; also called NT5E-expressing MDA-MB-231 cells; CD73
T1 sequence (looked up): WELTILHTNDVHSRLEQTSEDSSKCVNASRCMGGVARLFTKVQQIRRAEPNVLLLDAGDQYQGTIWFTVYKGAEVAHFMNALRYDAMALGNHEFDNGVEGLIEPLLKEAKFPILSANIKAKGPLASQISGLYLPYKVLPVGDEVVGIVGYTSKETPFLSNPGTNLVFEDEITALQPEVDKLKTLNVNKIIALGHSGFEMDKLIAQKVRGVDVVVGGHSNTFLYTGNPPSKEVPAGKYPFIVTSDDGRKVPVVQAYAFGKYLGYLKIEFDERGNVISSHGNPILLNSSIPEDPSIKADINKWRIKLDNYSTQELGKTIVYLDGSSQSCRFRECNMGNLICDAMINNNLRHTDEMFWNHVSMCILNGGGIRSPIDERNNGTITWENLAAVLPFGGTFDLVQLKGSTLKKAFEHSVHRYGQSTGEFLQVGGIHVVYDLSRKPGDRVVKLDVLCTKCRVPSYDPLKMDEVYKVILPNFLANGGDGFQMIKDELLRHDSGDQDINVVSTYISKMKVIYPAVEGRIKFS
Method: (§1) Flow cytometry analysis of antibodies binding to human NT5E expressed on MDA-MB-231 cells in ATP-free condition (black) or in 1 mM ATP (red). Top panel: (left) 1780 Fab and (right) 1780 IgG titrations. […] Binding was measured at the indicated range of antibody concentrations and is expressed as mean±st. dev of median fluorescence intensity (MFI) of 1-2 replicates. Data were analyzed using OriginLab, and EC₅₀ values are shown next to the fitted curves.
(§2) Human MDA-MB-231 cells and murine 4T1 cells were grown to 90% confluency, detached with 5 mM EDTA for 15 min at 37° C. and then resuspended in 37° C. lx PBS (#10010031, Gibco) supplemented with 1% FBS and 1OpM ZnCl2. Separate working buffers (WB) of PBS and 1% FBS with or without fixed nucleotide concentrations were used throughout all washing steps to maintain constant condition. In 96-well plates (#3799, Costar), 0.2×10⁶ cells were added per well. The plates were spun at 500×g for 5 min and the supernatant was removed. Anti-NT5E antibodies were diluted to the desired concentration in 100 μL WB, added to the cells and the plates were incubated for 20 min at 37° C. Plates were spun and cells were washed twice with WB then spun a second time. Cells were stained with 100 μL of secondary antibody (Alexa Fluor 647 AffiniPure Goat Anti-Human IgG, F(ab′)2 fragment specific, #109-605-006, Jackson, 1:200) dilution and plates were incubated for 20 min at 37° C. Cells were washed twice with WB then fixed on ice with WB supplemented with 0.5% PFA. Fixing solution was removed by centrifugation and cells were resuspended in cold 1× PBS. Samples were analyzed by flow cytometry using CytoFLEX (Beckman Coulter) and mean fluorescence intensity (MFI) data was extracted using FlowJo software. Resulting binding data was plotted using OriginLab.

[2] = target: T1, human NT5E expressed on MDA-MB-231 cells; assay: flow cytometry on MDA-MB-231 cells, 1 mM ATP; remark: listed apart in the source
Method: as §1, §2

[3] = target: T2, murine NT5E expressed on 4T1 cells (murine, UniProt Q61503 29-551); assay: flow cytometry on 4T1 cells, single Fab concentration, -ATP
T2 construct: whole, on cells; also called mouse NT5E-expressing 4T1 cells
T2 sequence (looked up): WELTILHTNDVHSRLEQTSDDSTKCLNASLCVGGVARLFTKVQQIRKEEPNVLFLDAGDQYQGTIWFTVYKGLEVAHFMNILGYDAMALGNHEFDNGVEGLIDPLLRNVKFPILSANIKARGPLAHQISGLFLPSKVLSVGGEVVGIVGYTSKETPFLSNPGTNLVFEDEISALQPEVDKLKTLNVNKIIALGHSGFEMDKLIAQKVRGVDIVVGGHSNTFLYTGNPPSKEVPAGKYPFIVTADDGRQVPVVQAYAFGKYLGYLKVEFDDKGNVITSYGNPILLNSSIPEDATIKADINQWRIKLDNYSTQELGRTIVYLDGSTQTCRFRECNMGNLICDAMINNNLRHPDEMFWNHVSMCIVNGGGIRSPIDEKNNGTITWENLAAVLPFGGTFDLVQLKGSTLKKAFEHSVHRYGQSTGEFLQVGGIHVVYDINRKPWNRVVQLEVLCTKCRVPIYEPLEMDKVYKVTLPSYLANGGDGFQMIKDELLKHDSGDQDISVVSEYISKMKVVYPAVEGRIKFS
Method: as §2

B1: 1780 Fab (Fab, V domains shown)
VH: EVQLVESGGGLVQPGGSLRLSCAASGFNFYSYSIHWVRQAPGKGLEWVASISSSSGYTYYADSVKGRFTISADTSKNTAYLQMNSLRAEDTAVYYCARYSWWGWHMEGWWGYMNAFDYWGQGTLVTV
VL: DIQMTQSPSSLSASVGDRVTITCRASQSVSSAVAWYQQKPGKAPKLLIYSASSLYSGVPSRFSGSRSGTDFTLTISSLQPEDFATYYCQQAHPKPITFGQGTKVEIKR
[1]
  EC50: 37 nM
[2]
  EC50: 40.8 nM
[3]
  binding result: no binding (tested: 200 nM)
